In publication PMC10588329:
Blank lines part the entries; values can stand above or below the substance they belong to.

Assays:
[1] = molecular target: Human wild-type CaMKII α (CaMKII^WT) (human) (UniProt Q9UQM7); assay: mass photometry
[2] = molecular target: CaMKII^L308BzF (human) (UniProt Q9UQM7); assay: mass photometry
[3] = molecular target: CaMKII^L308BzF (human) (UniProt Q9UQM7); assay: SEC
[4] = molecular target: CaMKII^L308BzF (human) (UniProt Q9UQM7); assay: cross-linking

UniProt Q9UQM7, sequence (Q9UQM7 6-478): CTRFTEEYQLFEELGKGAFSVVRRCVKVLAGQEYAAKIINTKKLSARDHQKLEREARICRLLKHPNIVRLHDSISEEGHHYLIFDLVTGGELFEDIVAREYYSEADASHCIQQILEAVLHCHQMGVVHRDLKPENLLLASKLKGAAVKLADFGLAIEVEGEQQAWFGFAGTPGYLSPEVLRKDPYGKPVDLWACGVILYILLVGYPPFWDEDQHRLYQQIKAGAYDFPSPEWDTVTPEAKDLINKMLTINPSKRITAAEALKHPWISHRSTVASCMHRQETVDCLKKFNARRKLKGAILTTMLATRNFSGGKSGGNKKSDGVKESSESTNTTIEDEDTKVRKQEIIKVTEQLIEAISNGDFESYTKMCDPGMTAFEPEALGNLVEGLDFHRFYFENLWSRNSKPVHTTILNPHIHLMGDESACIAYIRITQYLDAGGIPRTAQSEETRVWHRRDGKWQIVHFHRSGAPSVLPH

- stoichiometry N (Calmodulin per CaMKII dodecamer) [1]: 5
- stoichiometry N (Calmodulin per CaMKII holoenzyme) [1]: 6
Substance: Human Calmodulin (self-made) (from UniProt P0DP23 1-149) (natural protein)

- stoichiometry N [2]: 12 subunits
- stoichiometry N [3]: 12 subunits
Substance: CaMKII^L308BzF (from UniProt Q9UQM7 6-478) (enzyme)

- stoichiometry N (Calmodulin per CaMKII dodecamer) [2]: 12
- Kd [4]: 2.5 µM
Substance: His-tagged Calmodulin (Calbiochem) (from UniProt P0DP23 1-149) (natural protein)
